Experimental data from patent US20250027068A1.
Numbering of substitutions follows the chain as printed.

B1: VRT-10 (Fc fusion)
chain: TITSVWTKGVTPPTPEDFRYNNEDVLHAPYVANQGWYDITKTFDGKDNLLCGAATAGNMLHWWFDQNKEEIERYLKKHPEKQKIIFNNQELFDVKAAIDTKDSQTNSKLFNYFRDKAFPNLSARQLGVMPDLVLDMFINGYYLNLGKTQSTDVNRPYQDKDKRGGIFDAVFTRGDQTTLLTARHDLKNKGLNEISDLIKQELTEGKALALSHTYANVRINHVINLWGADFDAEGNLIAIYVTDSDANASIGMKKYFVGVNANGKVAISAKKIEGDNIGAQVLGLFTLSTGQDIWQKLSDKTHTCPPCPAPEAAGAPSVFLFPPKPKDTLMISRTPEVTCVVVDVSHEDPEVKFNWYVDGVEVHNAKTKPREEQQNSTYRVVSVLTVLHQDWLNGKEYKCKVSNKALKAPIEKTISKAKGQPREPQVYTLPPSRDELTKNQVSLTCLVKGFYPSDIAVEWESNGQPENNYKTTPPVLDSDGSFFLYSKLTVDKSRWQQGNVFSCSVMHEALHNHYTQKSLSLSPG
B2: VRT-5 (Fc fusion)
chain: VTSVWTKGVTPPANFTQGEDVFHAPYKANQGWYDITKTFNGKDDLLCGAATAGNMLHWWFDQNKDQIEAYLKEHPEKQKINFNGEQMFDVKEAIDTKDDQTNSKLFEYFKEKAFPYLSTKHLGVFPDHVLDMFINGYRLSLTNHGPTPVKEGSKDPRGGIFDAVFTRGDQSKLLTSRHDFKEKTLKEISDLIKQELTEGKALALSHTYANVRINHVINLWGADFDSNGNLEAIYVTDSDSNASIGMKKYFVGVNSAGKVAISAKEIEDDNIGAQVLGLFTLSTGQDIWNQTNDKTHTCPPCPAPEAAGAPSVFLFPPKPKDTLMISRTPEVTCVVVDVSHEDPEVKFNWYVDGVEVHNAKTKPREEQQNSTYRVVSVLTVLHQDWLNGKEYKCKVSNKALKAPIEKTISKAKGQPREPQVYTLPPSRDELTKNQVSLTCLVKGFYPSDIAVEWESNGQPENNYKTTPPVLDSDGSFFLYSKLTVDKSRWQQGNVFSCSVMHEALHNHYTQKSLSLSPG
B3: VRT-3 (Fc fusion)
chain: QITSVWTKGVTPLTPEQFRYNNEDVIHAPYLAHQGWYDITKAFDGKDNLLCGAATAGNMLHWWFDQNKTEIEAYLSKHPEKQKIIFNNQELFDLKAAIDTKDSQTNSQLFNYFRDKAFPNLSARQLGVMPDLVLDMFINGYYLNVFKTQSTDVNRPYQDKDKRGGIFDAVFTRGDQTTLLTARHDLKNKGLNDISTIIKQELTEGRALALSHTYANVSISHVINLWGADFNAEGNLEAIYVTDSDANASIGMKKYFVGINAHGHVAISAKKIEGENIGAQVLGLFTLSSGKDIWQKLSDKTHTCPPCPAPEAAGAPSVFLFPPKPKDTLMISRTPEVTCVVVDVSHEDPEVKFNWYVDGVEVHNAKTKPREEQQNSTYRVVSVLTVLHQDWLNGKEYKCKVSNKALKAPIEKTISKAKGQPREPQVYTLPPSRDELTKNQVSLTCLVKGFYPSDIAVEWESNGQPENNYKTTPPVLDSDGSFFLYSKLTVDKSRWQQGNVFSCSVMHEALHNHYTQKSLSLSPG
B4: VRT-11 (Fc fusion)
chain: B3 chain with L13P, H33N, A42T, D44N, G190T, I197L, R206K, I259V, H264K
B5: VRT-12 (Fc fusion)
chain: B3 chain with H33N, A42T, D44N, S76K, D193E, I197L, R206K, A246S, I259V, H264K
B6: VRT-8 (Fc fusion)
chain: VTSVWTKGVTPPADFTQGEDVFHAPYVANQGWYDITKTFNGKDDLLCGAATAGNMLHWWFDQNKEYIEAYLKKHPEKQKIMFGDQELLDVRKAINTKGSQKNSELFNYFRDKAFPNLSARRLGVMPDLVLDMFINGYYLNVTKTQTTDVNRTYQEKDKRGGIFDAVFTRGDQSKLLTSRHDFKEKGLKEISDLIKQELTEGKALGLSHTYANVRINHVINLWGADFDSDGNLKAIYVTDSDSNASIGMKKYFVGVNSAGKVAISAKEIKEDNIGAQVLGLFTLSTGQDIWNQTNDKTHTCPPCPAPEAAGAPSVFLFPPKPKDTLMISRTPEVTCVVVDVSHEDPEVKFNWYVDGVEVHNAKTKPREEQQNSTYRVVSVLTVLHQDWLNGKEYKCKVSNKALKAPIEKTISKAKGQPREPQVYTLPPSRDELTKNQVSLTCLVKGFYPSDIAVEWESNGQPENNYKTTPPVLDSDGSFFLYSKLTVDKSRWQQGNVFSCSVMHEALHNHYTQKSLSLSPG
B7: VRT-4 (Fc fusion)
chain: SQTEDSESLQRLRDIEDFQAEKKMQNVVYTKWLDGVDVKDHDFRKIVDGNIAYYATPLLNGRGFYDINKDFNRDSDKCAAAVAANMFHYWLDINRDNVDRFLRQNPEKHGIIELPDGQLKLSDFLNTYESDHGYRDKSKLFDFISNNFNGPVWTDKLLDNYINGYAYNYKYGRTIEDPTKNTSKINFFKEVFNEKILTNNHSIRNQNEFSVLLSEALYTGKAIGLSYGPAGLRHSLGHIISVWGADLDADGNVVAIYVTDSDDKKLTIGDERVGLKRYKISTDDENRLRLTAYEETHNTGGQIRGLWTLDTGKYAWADYFDKTEQTGTDQAEQDKTHTCPPCPAPEAAGAPSVFLFPPKPKDTLMISRTPEVTCVVVDVSHEDPEVKFNWYVDGVEVHNAKTKPREEQQNSTYRVVSVLTVLHQDWLNGKEYKCKVSNKALKAPIEKTISKAKGQPREPQVYTLPPSRDELTKNQVSLTCLVKGFYPSDIAVEWESNGQPENNYKTTPPVLDSDGSFFLYSKLTVDKSRWQQGNVFSCSVMHEALHNHYTQKSLSLSPG
B8: VRT-1 (Fc fusion)
chain: VTSVWTKGVTPPANFTQGEDVFHAPYVANQGWYDITKTFNGKDDLLCGAATAGNMLHWWFDQNKDQIKRYLEEHPEKQKINFNGEQMFDVKEAIDTKNHQLDSKLFEYFKEKAFPYLSTKHLGVFPDHVIDMFINGYRLSLTNHGPTPVKEGSKDPRGGIFDAVFTRGDQSKLLTSRHDFKEKNLKEISDLIKKELTEGKALGLSHTYANVRINHVINLWGADFDSNGNLKAIYVTDSDSNASIGMKKYFVGVNSAGKVAISAKEIKEDNIGAQVLGLFTLSTGQDSWNQTNDKTHTCPPCPAPEAAGAPSVFLFPPKPKDTLMISRTPEVTCVVVDVSHEDPEVKFNWYVDGVEVHNAKTKPREEQQNSTYRVVSVLTVLHQDWLNGKEYKCKVSNKALKAPIEKTISKAKGQPREPQVYTLPPSRDELTKNQVSLTCLVKGFYPSDIAVEWESNGQPENNYKTTPPVLDSDGSFFLYSKLTVDKSRWQQGNVFSCSVMHEALHNHYTQKSLSLSPG
B9: VRT-6 (Fc fusion)
chain: B2 chain with K27V, A69R, D99S, N102D, A203G, N227E, E231K, E267K, D268E
B10: VRT-7 (Fc fusion)
chain: VTSVWTKGVTPPTNFTYGEDVLHAPYVANQGWYDITKTFNGKDDLLCGAATAGNMLHWWFDQNKEQIENYLKKHPEKQKINFNGEQMFDVKEAIDTKDSQLDSKLFEYFKEKAFPYLSTKHLGVFPDHVIDMFINGYRLSLTNHGPTPVKRGSKDPRGGIFDAVFTRGDQSKLLTNRHDFKEKTLKEISDLIKQELTEGKALGISHTYANVRINHVINLWGADFDAEGNLEAIYVTDSDSNASIGMKKYFVGVNSNGKVAISAKEIEEDNIGAQVLGLFTLSTGQDIWNQTNDKTHTCPPCPAPEAAGAPSVFLFPPKPKDTLMISRTPEVTCVVVDVSHEDPEVKFNWYVDGVEVHNAKTKPREEQQNSTYRVVSVLTVLHQDWLNGKEYKCKVSNKALKAPIEKTISKAKGQPREPQVYTLPPSRDELTKNQVSLTCLVKGFYPSDIAVEWESNGQPENNYKTTPPVLDSDGSFFLYSKLTVDKSRWQQGNVFSCSVMHEALHNHYTQKSLSLSPG
B11: VRT-2 (Fc fusion)
chain: VTSVWTKGVTPPAKFTQGEDVFHAPYVANQGWYDITKTFNGKDDLLCGAATAGNMLHWWFDQNKEKIEAYLKKHPDKQKIMFGDQELLDVRKVINTKGDQTNSELFNYFRDKAFPGLSARRIGVMPDLVLDMFINGYYLNVYKTQTTDVNRTYQEKDRRGGIFDAVFTRGDQSKLLTSRHDFKEKNLKEISDLIKKELTEGKALGLSHTYANVRINHVINLWGADFDSNGNLKAIYVTDSDSNASIGMKKYFVGVNSAGKVAISAKEIKEDNIGAQVLGLFTLSTGQDSWNQTNDKTHTCPPCPAPEAAGAPSVFLFPPKPKDTLMISRTPEVTCVVVDVSHEDPEVKFNWYVDGVEVHNAKTKPREEQQNSTYRVVSVLTVLHQDWLNGKEYKCKVSNKALKAPIEKTISKAKGQPREPQVYTLPPSRDELTKNQVSLTCLVKGFYPSDIAVEWESNGQPENNYKTTPPVLDSDGSFFLYSKLTVDKSRWQQGNVFSCSVMHEALHNHYTQKSLSLSPG

Biological target: pooled human IgG (human)
Test: cell-based or functional assay

Binder	Enzyme Activity Endpoint Assay: Fab′2	Enzyme Activity Endpoint Assay: Fc	Enzyme Activity Endpoint Assay: IgG	Enzyme Activity Endpoint Assay: scIgG
B1	56 ng/µL	266 ng/µL	71 ng/µL	169 ng/µL
B2	137 ng/µL	294 ng/µL	89 ng/µL	151 ng/µL
B3	0 ng/µL	99 ng/µL	808 ng/µL	50 ng/µL
B4	0 ng/µL	90 ng/µL	829 ng/µL	38 ng/µL
B5	0 ng/µL	101 ng/µL	747 ng/µL	64 ng/µL
B6	0 ng/µL	126 ng/µL	652 ng/µL	125 ng/µL
B7	0 ng/µL	29 ng/µL	990 ng/µL	24 ng/µL
B8	175 ng/µL	334 ng/µL	197 ng/µL	137 ng/µL
B9	132 ng/µL	304 ng/µL	78 ng/µL	172 ng/µL
B10	61 ng/µL	258 ng/µL	178 ng/µL	249 ng/µL
B11	97 ng/µL	238 ng/µL	247 ng/µL	100 ng/µL
